Experiment [1] deals with T1, SEB (UniProt P01552 28-266).
T1 sequence: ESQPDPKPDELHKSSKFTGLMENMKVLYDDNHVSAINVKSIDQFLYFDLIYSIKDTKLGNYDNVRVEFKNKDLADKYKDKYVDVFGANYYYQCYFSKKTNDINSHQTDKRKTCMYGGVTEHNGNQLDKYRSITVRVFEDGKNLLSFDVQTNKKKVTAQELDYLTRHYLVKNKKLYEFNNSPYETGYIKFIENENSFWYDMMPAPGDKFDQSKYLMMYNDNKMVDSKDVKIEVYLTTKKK
Nature of the experiment: antigen specific ELISA (subsequent study, data not shown).

In experiment [2] the target is T2, human mesothelin (human, UniProt Q13421 296-598, limits assumed).
T2 construct: also called human Mesothilin
T2 sequence (Q13421 other isoform, or with tags, fused parts or gaps limits assumed): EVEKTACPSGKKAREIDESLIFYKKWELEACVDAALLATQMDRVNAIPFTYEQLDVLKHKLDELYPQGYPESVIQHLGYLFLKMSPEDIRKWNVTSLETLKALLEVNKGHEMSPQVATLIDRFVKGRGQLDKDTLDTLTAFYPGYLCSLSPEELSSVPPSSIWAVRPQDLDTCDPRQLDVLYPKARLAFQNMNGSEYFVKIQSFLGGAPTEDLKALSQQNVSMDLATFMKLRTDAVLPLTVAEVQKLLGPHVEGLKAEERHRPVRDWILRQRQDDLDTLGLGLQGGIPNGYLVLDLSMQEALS
The description is as above.

Experiment [3] addresses T3, HEL (UniProt P00698 19-147). Described as above.
Experiment [4] addresses T4, human granulocyte-macrophage colony stimulating factor (GM-CSF) (human, UniProt P04141 18-144).
T4 construct: The assays used recombinant human GM-CSF (in-house, PeproTech, or PE-labeled from R&D Systems); also called hGM-CSF; human GM-CSF
Nature of the experiment: apparent affinity, method not given.

The target in experiment [5] is T4, human granulocyte-macrophage colony …. Nature of the experiment: BIACORE.
Experiment [6] addresses T5, human GM-CSF overlapping 12-mer peptide, SEQ ID NO:37 (human).
T5 construct: also called peptide #14
T5 peptide: YKQGLRGSLTKL-{cellulose membrane}
Nature of the experiment: SPOT peptide membrane probed with G9, HRP goat anti-human IgG, ECL.

The target of experiment [7] is T6, human GM-CSF overlapping 12-mer peptide, SEQ ID NO:36 (human).
T6 construct: also called peptide #13
T6 peptide: TRLELYKQGLRG-{cellulose membrane}
Described as above.

For experiment [8], the target named is T7, human GM-CSF overlapping 12-mer peptide, SEQ ID NO:38 (human).
T7 construct: also called peptide #15
T7 peptide: RGSLTKLKGPLT-{cellulose membrane}
The description is as above.

Experiment [9] concerns the target T8, human GM-CSF overlapping 12-mer peptide, SEQ ID NO:35 (human).
T8 construct: also called peptide #6
T8 peptide: ARRLLNLSRDTA-{cellulose membrane}
The experiment is described as above.

For experiment [10], the target named is T9, human GM-CSF overlapping 12-mer peptide #23.
T9 construct: Only 'possibly' recognized by G9
T9 peptide: KENLKDFLLVIP-{cellulose membrane}
Nature of the experiment: SPOTs peptide membrane, 1 mg/ml purified 10G9.

For experiment [11], the target named is T1, SEB. Nature of the experiment: antigen-specific ELISA (subsequent study, data not shown).
Experiment [12] concerns the target T2, human mesothelin. The description is as above.
The target in experiment [13] is T3, HEL. The description is as above.
For experiment [14], the target named is hIL-13 (human, UniProt P35225 35-146, limits assumed). Nature of the experiment: antigen panel ELISA, antigen coated on the plate, O.D. 450.
Chain of hIL-13 (P35225 35-146 limits assumed): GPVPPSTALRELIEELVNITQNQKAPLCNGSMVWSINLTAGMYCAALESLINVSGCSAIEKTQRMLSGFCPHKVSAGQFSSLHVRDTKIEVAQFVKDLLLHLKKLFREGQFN
The target of experiment [15] is T10, murine GM-CSF (murine, UniProt P01587 18-141).
T10 construct: also called mGM-CSF
T10 sequence (looked up): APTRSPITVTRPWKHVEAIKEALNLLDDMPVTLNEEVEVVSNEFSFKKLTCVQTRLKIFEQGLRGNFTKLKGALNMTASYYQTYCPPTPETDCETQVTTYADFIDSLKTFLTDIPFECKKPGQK
The experiment is described as above.

For experiment [16], the target named is IL-6 (Homo sapiens (Human), UniProt P05231 30-212). The experiment is described as above.
For experiment [17], the target named is T11, h IL-3 (human, UniProt P08700 20-152).
T11 sequence (looked up): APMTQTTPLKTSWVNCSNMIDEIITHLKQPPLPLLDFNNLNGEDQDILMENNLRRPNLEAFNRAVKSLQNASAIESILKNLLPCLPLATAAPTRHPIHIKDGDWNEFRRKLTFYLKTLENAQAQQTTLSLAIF
The description is as above.

Experiment [18] deals with T12, BSA (bovine, UniProt P02769 25-607).
T12 construct: also called bovine serum albumin
T12 sequence (P02769 25-607 limits assumed): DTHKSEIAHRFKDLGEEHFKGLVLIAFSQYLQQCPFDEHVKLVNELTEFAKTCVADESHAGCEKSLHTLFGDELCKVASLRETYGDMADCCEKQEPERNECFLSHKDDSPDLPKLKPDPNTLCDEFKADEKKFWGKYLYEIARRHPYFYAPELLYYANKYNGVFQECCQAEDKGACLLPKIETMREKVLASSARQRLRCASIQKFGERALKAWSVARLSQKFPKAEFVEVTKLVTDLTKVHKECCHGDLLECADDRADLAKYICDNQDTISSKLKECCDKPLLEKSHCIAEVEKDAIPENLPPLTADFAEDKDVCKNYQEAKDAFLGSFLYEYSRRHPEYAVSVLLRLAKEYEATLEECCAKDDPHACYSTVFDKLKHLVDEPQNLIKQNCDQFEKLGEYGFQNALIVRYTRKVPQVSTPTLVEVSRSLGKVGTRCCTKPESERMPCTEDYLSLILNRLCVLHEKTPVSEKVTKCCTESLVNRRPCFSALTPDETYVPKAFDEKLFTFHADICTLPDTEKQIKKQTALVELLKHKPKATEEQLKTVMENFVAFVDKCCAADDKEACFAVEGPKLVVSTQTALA
The experiment is described as above.

Experiment [19] addresses h IL-2 (human, UniProt P60568 21-153). The experiment is described as above.
Experiment [20] concerns the target T13, hIL-1a (human, UniProt P01583 113-271).
T13 sequence (looked up): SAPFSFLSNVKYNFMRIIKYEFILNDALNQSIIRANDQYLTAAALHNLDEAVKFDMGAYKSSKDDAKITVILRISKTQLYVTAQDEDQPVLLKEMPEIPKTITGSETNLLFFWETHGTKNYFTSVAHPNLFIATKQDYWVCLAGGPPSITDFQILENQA
The description is as above.

The target in experiment [21] is T14, h IL-4 (human, UniProt P05112 25-153).
T14 sequence (looked up): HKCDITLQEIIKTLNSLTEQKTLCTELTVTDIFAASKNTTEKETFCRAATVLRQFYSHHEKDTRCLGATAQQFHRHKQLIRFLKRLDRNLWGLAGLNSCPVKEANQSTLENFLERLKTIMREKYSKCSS
Described as above.

The target of experiment [22] is T15, h IL-5 (human, UniProt P05113 20-134).
T15 sequence (looked up): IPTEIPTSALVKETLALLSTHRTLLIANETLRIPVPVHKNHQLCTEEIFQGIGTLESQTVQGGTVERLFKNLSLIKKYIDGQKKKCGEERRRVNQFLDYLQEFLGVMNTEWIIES
Described as above.

Several values for one entry are separate records, joined by “and”; a condition that tells them apart may be missing. Equal values may be shown once. Where no end group is shown, it is not given here. cellulose membrane = derivatized cellulose membrane (SPOTs) solid support, attached to the peptide C-terminus

T4 sequence (P04141 18-144): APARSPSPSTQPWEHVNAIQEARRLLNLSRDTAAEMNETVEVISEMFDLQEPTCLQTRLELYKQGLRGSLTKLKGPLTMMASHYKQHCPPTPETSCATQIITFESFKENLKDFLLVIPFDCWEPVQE
T3 sequence (P00698 19-147): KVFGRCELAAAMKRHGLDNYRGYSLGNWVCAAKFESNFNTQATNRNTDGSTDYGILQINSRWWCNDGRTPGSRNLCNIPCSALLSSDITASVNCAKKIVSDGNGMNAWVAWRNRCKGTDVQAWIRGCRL
Chain of h IL-2 (P60568 21-153 limits assumed): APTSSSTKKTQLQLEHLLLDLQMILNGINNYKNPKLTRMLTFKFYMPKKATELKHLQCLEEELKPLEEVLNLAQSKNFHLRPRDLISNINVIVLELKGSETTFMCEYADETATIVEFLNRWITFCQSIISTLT

B1: anti-GM-CSF human IgG1 monoclonal antibody G9 (antibody, V domains shown)
VH: EVQLVESGGGLVQPGGSLRLSCAASGFTFSRHWMHWLRQVPGKGPVWVSRINGAGTSITYADSVRGRFTISRDNANNTLFLQMNSLRADDTALYFCARANSVWFRGLFDYWGQGTPVTVSS
VL: EIVLTQSPVTLSVSPGERVTLSCRASQSVSTNLAWYQQKLGQGPRLLIYGASTRATDIPARFSGSGSETEFTLTISSLQSEDFAVYYCQQYDKWPDTFGQGTKLEIKR
notes: Fully human IgG1 kappa made by a hybridoma from B cells of a PAP patient; also called 10G9; 10G9.1
Take B1: the binding result in [1] was “no binding”; in experiment [2] it was “no binding”; in experiment [3] it was “no binding”; in [6], “binds”; in experiment [7] it was “binds”; in experiment [8], “binds”. Besides, the binding result in [9] and in experiment [10] was “binds” in each case. Moreover, the Kd was 0.014 nM in experiment [4]; 0.0109 nM and 0.011 nM to 0.017 nM (2×) in [5]. In [5], this molecule gave a koff of 9.27e-05 s⁻¹. Further, the kon in experiment [5] came to 8.47e+06 M⁻¹ s⁻¹.

B2: anti-GM-CSF human IgG1 monoclonal antibody E10 (antibody, V domains shown)
VH: QVQLEESGGGVVQPGRSLRLSCAASGFTFTNYGMHWVRQAPGKGLEWLALISYDGNRQYYADSVKGRFTVSRDNPNNTLHLEMKSLRAEDSAIYYCARGAGVLLWFGDLSWFDPWGQGTLVTVSS
VL: DIQMTQSPSNLSASVGDRVTITCRASQNINTWLAWYQHKPGKPPKLRIYQASTLESGVPSRFSGSGSGTIFTLTISSLQPDDFGTYYCQQNNSYPYTFGQGTKLEINR
notes: Fully human IgG1 kappa made by a hybridoma from B cells of a PAP patient; also called 4E10; E10.20
On to B2, for which the binding result in [11], in experiment [12], in experiment [13], in experiment [14], in [15] and in experiment [16] was “no binding” in each case. Also, the binding result in experiment [17], in experiment [18], in experiment [19], in [20], in [21] and in experiment [22] was “no binding” in each case. In [5], the Kd was 0.87 nM and ~0.87 nM. The koff in experiment [5] was 2.16e-05 s⁻¹. The kon in experiment [5] is 24700 M⁻¹ s⁻¹.

The record behind these values is US20080292641A1 (MORPHOTEK, published 2008).
